We go through 26 molecules from US20240180856A1, “COMPOSITIONS, […] SYSTEMS, AND METHODS USEFUL IN TUMOR […]” (published 2024).

In test [1] the target is CD-1 mouse plasma proteins. Kind of test: plasma protein binding, equilibrium dialysis, LC-MS/MS; control.
Test [2] addresses human plasma proteins. The description is as above.
Test [3] has as its target CD-1 mouse plasma proteins. Nature of the test: plasma protein binding, equilibrium dialysis, LC-MS/MS.
In test [4] the target is human plasma proteins. The description is as above.
Test [5] deals with His-tagged FOLR1 human recombinant protein (11241-H08H, SinoBiological) (human) (UniProt P15328). Nature of the test: ELISA.
Test [6] has the same target. Nature of the test: ELISA, linker screen.
The target in test [7] is CD-1 mouse plasma proteins. Kind of test: plasma protein binding; value marked (FB).
The target in test [8] is human plasma proteins. Kind of test: plasma protein binding; value marked (FB).
The target of test [9] is His-tagged FOLR1 human recombinant protein (11241-H08H, SinoBiological) (human) (UniProt P15328). Kind of test: ELISA. The source holds these as a separate data set.
Test [10] deals with mouse recombinant FOLR1 (rMuFOLR1) (mouse, UniProt P35846). Nature of the test: ELISA.
Test [11] has as its target His-tagged FOLR1 human recombinant protein (11241-H08H, SinoBiological) (human) (UniProt P15328). Kind of test: ELISA, against folate as reference.
Test [12] concerns the target FOLR1 on OVCAR3 cells (human ovarian adenocarcinoma, FOLR1 (+) cell line) (human) (UniProt P15328). Kind of test: flow cytometry on OVCAR3 cells, no folate.
Test [13] has the same target. Kind of test: flow cytometry on OVCAR3 cells, with 0.1 µg/mL free folate as competitor.
The target is the same in test [14].

Positions of bridges follow the written chain, without caps; N, C: chain ends. Non-standard residues stand in square brackets, D forms with d. Groups on a side chain read outwards from the residue. Primed or numbered codes have the meaning given here. No end group written: not given here. *: point of attachment. DOTA = O=C(O)CN1CCN(CC(=O)O)CCN(CC(=O)*)CCN(CC(=O)O)CC1; Biotin = O=C1N[C@H]2[C@H](CS[C@H]2CCCCC(=O)*)N1; Butanoyl(4-(4-I-phenyl)) = O=C(CCCc1ccc(I)cc1)*; Butanoyl(4-(4-MePh)) = Cc1ccc(CCCC(=O)*)cc1; Lys(N3) = [N-]=[N+]=NCCCC[C@H](N)C(=O)O; FB = fluorobenzaldehyde oxime; PEG10′ = PEG spacer, 10 units; PEG3′ = PEG spacer, 3 units; PEG7′ = PEG linker, 7 units; AO = aminooxy group, NO*; Pra = C#CC[C@H](N)C(=O)O

As for Octreotide Acetate (peptide), the results for the Plasma % Bound (in [1]; in the test with human plasma proteins [2]) were 62.4% and 59.4%, respectively.

B1: Compound #2, Fol-hshta-PEG3-Lys(FB) (peptide)
peptide: Fol-[dH][dS][dH][dT][dA]K(FB)
modifications: not fully specified (residue 5, bridges)
For the molecule B1, the values for the Plasma % Bound (in [3]; with human plasma proteins [4]) were 20.2% and 43%, respectively.

B2: deryt (SEQ ID NO:20) macrocyclic peptide ligand (PCC) (peptide)
peptide: [Pra][dD][dE][dR][dY][dT][Lys(N3)]
modifications: triazole N-C
Turning to B2, the EC50 in test [5] worked out at 10000 nM.

B3: Compound #1306, folate-hshta-Lys(IPBA)-M-V-Lys(DOTA) (SEQ ID NO:6) (peptide)
peptide: Fol-[dH][dS][dH][dT][dA]K(Butanoyl(4-(4-I-phenyl)))MVK(DOTA)
modifications: not fully specified (residue 5, bridges)
As for B3, the Plasma % Bound in [3] came to 97.1%; in the test with human plasma proteins [4] it was 97.3%.

B4: Lys(PEG3-Folate)-deryt heterobiligand (peptide)
peptide: K[dD][dE][dR][dY][dT]
modifications: not fully specified (residue 1, C-terminus, bridges); also: macrocycle (click Pra/Az4 or amide variant), ends not placed
Take B4: the EC50 in [5] came to 0.16 nM.

B5: kyeet (SEQ ID NO:9) macrocyclic peptide ligand (PCC) (peptide)
peptide: [Pra][dK][dY][dE][dE][dT][Lys(N3)]
modifications: triazole N-C
Consider B5, for which, in test [5], the EC50 was above 10000 nM.

B6: Compound #6307, Fol-hshta-PEG3-Gly-Phe-Lys(DOTA) (peptide)
peptide: Fol-[dH][dS][dH][dT][dA]GFK(DOTA)
modifications: not fully specified (residue 5, bridges)
For the molecule B6, the results for the Plasma % Bound (in test [3]; in the test with human plasma proteins [4]) were 40.6% and 41.3%, respectively.

B7: Pra(Az4-PEG3-folate)-deryt heterobiligand (peptide)
peptide: [dD][dE][dR][dY][dT][Lys(N3)]
modifications: triazole N-C; not fully specified (N-terminus); printed as Pra(Az4-PEG3-folate)-deryt; also: N-terminal Pra joined by Tz (triazole) linker to Az4-PEG3-folate
As for B7, the EC50 in test [5] was determined as 0.27 nM.

B8: Compound #2809, folate-hshta-PEG3-Lys(MPBA)-Lys(DOTA) (SEQ ID NO:6) (peptide)
peptide: Fol-[dH][dS][dH][dT][dA]K(Butanoyl(4-(4-MePh)))K(DOTA)
modifications: not fully specified (residue 5, bridges); printed as folate-hshta-PEG3-Lys(MPBA)-Lys(DOTA)
In the case of B8, the figures for the Plasma % Bound (in test [3]; with human plasma proteins [4]) were 92.1% and 83.3%, respectively.

B9: Folate-Gly-hshta heterobiligand (peptide)
peptide: Fol-G[dH][dS][dH][dT][dA]
modifications: not fully specified (residue 1, C-terminus, bridges)
B9: the concentration for a half-maximal effect (EC50) in test [6] came to 0.9 nM.

B10: Compound #3303, Fol-hshta-Gly-Phe-Lys(AO) (peptide)
peptide: Fol-[dH][dS][dH][dT][dA]GFK(AO)
modifications: not fully specified (residue 5, bridges); printed as Fol-hshta-Gly-Phe-Lys(AO)
B10: the Plasma % Bound in test [7] is 75.5%; with human plasma proteins [8], 81%.

B11: Folate-Pro-hshta heterobiligand (peptide)
peptide: Fol-P[dH][dS][dH][dT][dA]
modifications: not fully specified (residue 1, C-terminus, bridges)
As for B11, the half-maximal effective concentration (EC50) in test [6] worked out at 0.9 nM.

B12: folate-hshta (SEQ ID NO:6) NTerm heterobiligand, Folate-hshta-PEG10-PEG10-K(Biotin) (peptide)
peptide: Fol-[dH][dS][dH][dT][dA][PEG10′][PEG10′]K(Biotin)
modifications: not fully specified (bridges); printed as folate-hshta
Turning to B12, the EC50 in [9] was 0.35 nM; in test [5] it was 0.065 nM; in [10] it was 0.33 nM; in test [6] it was 0.18 nM. Moreover, the fold greater affinity than folate itself in test [11] turned out to be 30 fold. Besides, the percentage of OVCAR3 cells binding in test [12] turned out to be 76.6%; in test [13], 57%.

B13: DyLight650-labeled folate-hshta (SEQ ID NO:6) Nterm heterobiligand (peptide)
peptide: Fol-[dH][dS][dH][dT][dA]
modifications: not fully specified (C-terminus, bridges); also: DyLight 650 label, site not given here
In turn, B13 had a percentage of positively stained cells after acid wash (flow cytometry) in test [14] of 54.2%.

B14: Compound #1307, folate-hshta-Lys(IPBA)-Gly-Phe-Lys(DOTA) (SEQ ID NO:6) (peptide)
peptide: Fol-[dH][dS][dH][dT][dA]K(Butanoyl(4-(4-I-phenyl)))GFK(DOTA)
modifications: not fully specified (residue 5, bridges)
On to B14, for which the Plasma % Bound in test [3] was determined as 99.6%; in the test with human plasma proteins [4], 99.5%.

B15: Compound #1189, Fol-hshta-PEG3-Lys(DOTA) (peptide)
peptide: Fol-[dH][dS][dH][dT][dA]K(DOTA)
modifications: not fully specified (residue 5, bridges); printed as folate-hshta-PEG3-Lys(DOTA)
Consider B15, for which the Plasma % Bound in [3] amounted to 29.5%; with human plasma proteins [4], 46%.

B16: folate-hshta Tz heterobiligand (peptide)
peptide: [dH][dS][dH][dT][dA][Lys(N3)]
modifications: triazole N-C; not fully specified (N-terminus); also: folate joined through PEG linker and Tz (triazole) attachment
Regarding B16, the EC50 in test [5] came out at 0.107 nM.

B17: hshta (SEQ ID NO:6) macrocyclic peptide ligand (PCC) (peptide)
peptide: [Pra][dH][dS][dH][dT][dA][Lys(N3)]
modifications: triazole N-C; also: further groups not given here
B17: the EC50 in [9] is 3400 nM; in test [5], 3920 nM; in test [10], 2100 nM.

B18: folate-deryt (SEQ ID NO:20) heterobiligand (construct not specified) (peptide)
peptide: [Pra][dD][dE][dR][dY][dT][Lys(N3)]
modifications: triazole N-C; also: conjugated to folate, attachment not said
On to B18, for which, in test [6], the 50% effective concentration (EC50) came out at 0.28 nM.

B19: Compound #6305, folate-hshta-Lys(MPBA)-Gly-Phe-Lys(DOTA) (SEQ ID NO:6) (peptide)
peptide: Fol-[dH][dS][dH][dT][dA]K(Butanoyl(4-(4-MePh)))GFK(DOTA)
modifications: not fully specified (residue 5, bridges)
Consider B19, for which the Plasma % Bound in [3] was determined as 96.3%; with human plasma proteins [4], 98.3%.

B20: Folate-hshta-DOTA: folate-hshta with the tag Lys(DOTA)-PEG10-PEG10-Lys(Biotin) (peptide)
peptide: Fol-[dH][dS][dH][dT][dA]K(DOTA)[PEG10′][PEG10′]K(Biotin)
modifications: not fully specified (some residues, bridges); printed as Folate-hshta-DOTA
Consider B20, for which the EC50 in test [5] was 0.098 nM.

B21: Compound #3302, Fol-hshta-Lys(4-MPBA)-Gly-Phe-Lys(PEG3-DOTA) (peptide)
peptide: Fol-[dH][dS][dH][dT][dA]K(Butanoyl(4-(4-MePh)))GFK([PEG3′-DOTA])
modifications: not fully specified (residue 5, bridges)
Consider B21, for which the values for the Plasma % Bound (in test [3]; with human plasma proteins [4]) were 96.5% and 94.9%, respectively.

B22: folate-kyeet Tz heterobiligand (peptide)
peptide: [dK][dY][dE][dE][dT][Lys(N3)]
modifications: triazole N-C; not fully specified (N-terminus); also: folate joined through PEG linker and Tz (triazole) attachment
In the case of B22, in [5], the EC50 stood at 0.149 nM.

B23: Folate-PEG7-hshta heterobiligand (peptide)
peptide: {Fol-PEG7′}-[dH][dS][dH][dT][dA]
modifications: also: triazole macrocycle (Pra/Az4 click), ends not placed
Consider B23, for which the EC50 in [6] came out at 1 nM.

B24: Folate-hshta-MPBA: folate-hshta with the tag Lys(4-MPBA)-PEG10-PEG10-Lys(Biotin) (peptide)
peptide: Fol-[dH][dS][dH][dT][dA]K(Butanoyl(4-(4-MePh)))[PEG10′][PEG10′]K(Biotin)
modifications: not fully specified (some residues, bridges); printed as Folate-hshta-MPBA
On to B24, for which the 50% effective concentration (EC50) in test [5] came out at 0.11 nM.

B25: Compound #7327, folate-hshta-Gly-Phe-Lys(DOTA) (SEQ ID NO:6) (peptide)
peptide: [dH][dS][dH][dT][dA]GFK(DOTA)
modifications: not fully specified (residue 5, N-terminus, bridges); printed as folate-hshta-Gly-Phe-Lys(DOTA)
Turning to B25, the Plasma % Bound amounted to 40.9% in test [3] and 40.3% with human plasma proteins [4].
